Measured values from paper PMC9655578.

How the values were obtained:
[1] = substrate: O=c1cc(-c2ccc(O)cc2)oc2cc(O)cc(O)c12; assay: purified protein; details: CYP:Pdx:PdR 1:8:2 (P. putida redox partners; CYP 1 µM), 500 µM NADH, phosphate buffer; 3'-hydroxylation
[2] = substrate: O=C1C[C@@H](c2ccc(O)cc2)Oc2cc(O)cc(O)c21; assay: purified protein; details: CYP:Pdx:PdR 1:8:2 (P. putida redox partners; CYP 1 µM), 500 µM NADH, phosphate buffer; 3'-hydroxylation

B1: CYP101D5 (Sphingomonas echinoides) (protein)
chain: MSAAEEIHTPRPAHVPADRVVELDMYNPQGIEKGYLEAWTSLQTADLPSMVWTPLNGGHWIATRGELIQDIYCDPDHFSSHVIFIPKAAGEKYAMVPSKMDPPEHRPYREVVDKGLNLRAIREREPAVRAHAIALIEAFADKGHCDFVEEFSGEFPIRVFMMMADLPMEDSPKLRAFAAGMTRPEGNTPTEMADALDRANRSFFDYVSPIIDARMGGDGTDILTLSINSQVNGAPMEREKLLGMVSLLLLAGLDTVTNFLNMTMDYLGRHPDKVRELTENPTEIRRGVEELFRRFPLVAAARMVAHDVERDGVELKQGEMVLLPTALHGLDPRVNADPWEVDFQRKRPAHSTFGNGPHRCAGLHLARLETTVMLEEWLKRIPTFRVVPGTGPTYHSGVVASVDGVRLEW
Km [1]: 46.28 ± 4.88 µM
kcat [1]: 0.0138 s⁻¹
Km [2]: 26.39 ± 2.23 µM
kcat [2]: 0.0195 s⁻¹
